One block for each compound: values may come before it. Non-standard residues stand in square brackets, D forms with d. Residues, ends and D or L forms follow the SMILES beside them. d(pGlu) = O=C1CC[C@H](C(=O)O)N1; pGlu = O=C1CC[C@@H](C(=O)O)N1
Key:
[1] = molecular target: T1, mouse GnRH-R (Mus musculus, UniProt Q01776); assay: Electrophysiological response of Xenopus oocytes injected with WZ25 RNA transcript (two-electrode voltage clamp); assay type: cell-based; details: for response of RNA-injected oocytes to agonist: buserelin 100 nM
T1 construct: The longest open reading frame encodes a 327 amino acid protein; expressed in transfected cells; host or cells: Xenopus laevis oocytes injected with capped synthetic WZ25 RNA transcript
T1 sequence (Q01776 1-327): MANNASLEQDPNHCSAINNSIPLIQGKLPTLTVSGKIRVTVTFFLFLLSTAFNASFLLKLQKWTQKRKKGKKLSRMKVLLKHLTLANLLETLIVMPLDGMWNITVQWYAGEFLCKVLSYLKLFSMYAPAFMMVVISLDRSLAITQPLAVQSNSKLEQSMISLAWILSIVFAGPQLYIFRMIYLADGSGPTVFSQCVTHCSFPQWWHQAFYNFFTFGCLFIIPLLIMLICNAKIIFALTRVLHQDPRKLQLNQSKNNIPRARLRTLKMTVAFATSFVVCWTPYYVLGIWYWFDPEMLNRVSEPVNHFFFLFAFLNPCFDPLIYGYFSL
Description: Adult female Xenopus laevis (Nasco, Ft. Atkinson, WI) were kept at 18-20°C and a day/night cycle of 15h/9h. […] Peptide ligands were diluted in the perfusion buffer and introduced into the bath. The clamp current was recorded using a chart recorder. Reversal potentials were determined by continuous ramping from -70 to +10 mV over 2 seconds with and without agonist through an IBM PC/AT system using the TL-1 interface and pCLAMP software from Axon Instruments (Burlingame, CA).
WZ25 in pBluescript II SK+ (Stratagene) was linearized and capped RNA transcript synthesized using T3 RNA polymerase (Stratagene).

[2] = molecular target: T2, human GnRHR (Homo sapiens, UniProt P30968); assay: Electrophysiological response of Xenopus oocytes injected with LC27-4 RNA transcript; assay type: cell-based; details: 2 x 10^-7 M agonist; LC27-4 RNA-injected oocytes
T2 construct: The human GnRH-R cDNA was subcloned into an expression vector, pSV2A, containing an SV40 early promoter; expressed in transfected cells; host or cells: COS-1 cells, transient DEAE-dextran transfection with pSV2A-human GnRH-R
T2 sequence (P30968 1-328): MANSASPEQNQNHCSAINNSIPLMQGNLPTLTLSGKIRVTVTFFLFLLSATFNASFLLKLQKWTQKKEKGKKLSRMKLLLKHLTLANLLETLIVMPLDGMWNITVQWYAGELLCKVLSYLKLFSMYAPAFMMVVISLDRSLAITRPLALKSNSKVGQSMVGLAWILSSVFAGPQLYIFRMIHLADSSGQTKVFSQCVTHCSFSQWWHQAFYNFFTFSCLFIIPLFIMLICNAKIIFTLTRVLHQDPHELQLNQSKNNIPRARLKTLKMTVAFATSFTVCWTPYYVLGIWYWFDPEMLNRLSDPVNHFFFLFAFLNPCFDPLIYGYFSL
Description: Construct LC27-4 was linearized and capped RNA transcript synthesized using T3 RNA polymerase. Oocyte preparation and electrophysiology were performed as previously described (Sealfon et al., 1990, Mol. Endocrinol. 4:119-124). Cells were injected with 1-10 ng of synthetic transcript and electrophysiology recorded via two-electrode voltage clamp 48 hours later. All agonists and antagonists were applied at a concentration of 0.2 µM.

[3] = molecular target: T3, GnRH-R (Mus musculus, UniProt Q01776); assay: 125I-GnRH-A radioligand binding assay, αT3-1 cell membranes; details: read-out: Kd, displacement of 125I-GnRH-A
T3 construct: similar Kds of 4.5 and 2.9 nM in WZ25 RNA-injected oocyte membranes and αT3-1 cell membranes respectively; endogenous in cells; host or cells: αT3-1 mouse gonadotrope cell membranes, combined with membranes from uninjected oocytes
T3 sequence (Q01776 1-327): T1 sequence (Q01776 1-327)

[4] = molecular target: T1, mouse GnRH-R; assay: 125I-GnRH-A radioligand binding assay, membranes of WZ25 RNA-injected oocytes; details: WZ25 RNA-injected oocyte membranes; read-out: Kd, displacement of 125I-GnRH-A
Description: For membrane preparation, 500 oocytes were each injected with 2.5 ng synthetic WZ25 RNA.

[5] = molecular target: T2, human GnRHR; assay: 125I-GnRH-A receptor binding, membranes of COS-1 cells transfected with pSV2A-human GnRH-R; details: membranes from transfected COS-1 cells; read-out: dissociation constant, displacement of GnRH-A
[6] = molecular target: T2, human GnRHR; assay: Inositol phosphate production in COS-1 cells transfected with pSV2A-human GnRH-R; assay type: cell-based; details: GnRH 10^-8 M; read-out: IC50, inhibition of GnRH-stimulated inositol phosphate production
Description: For studies on inositol phosphate production, 1.8 x 10^5 cells/well (12-well plates) were transfected with 1.5 µg DNA. Cells were assayed 48 hours after transfection.
Accumulation of [^3H]IP in the presence of LiCl was used as an index of inositol phosphate turnover. […] The reaction was terminated by the addition of a perchloric acid solution and phytic acid. After neutralizing with KOH, the inositol phosphates were separated on a Dowex ion exchange column and counted.

[7] = molecular target: mouse gonadotropin-releasing hormone receptor (GnRH-R), clone WZ25 (mouse); assay: cell-based or functional assay
[8] = molecular target: mouse gonadotropin-releasing hormone receptor (GnRH-R), clone WZ25 (mouse); assay: radioligand binding of 125I-GnRH-A to membranes of WZ25 RNA-injected oocytes; non-specific binding with 10^-6 M GnRH analogue was 662 cpm
[9] = molecular target: mouse gonadotropin-releasing hormone receptor (GnRH-R), clone WZ25 (mouse); assay: displacement of 125I-GnRH-A by GnRH-A, membranes of WZ25 RNA-injected oocytes
[10] = molecular target: mouse gonadotropin-releasing hormone receptor (GnRH-R), clone WZ25 (mouse); assay: displacement of 125I-GnRH-A by GnRH-A, alphaT3-1 cell membranes (endogenous mouse receptor)
[11] = molecular target: human gonadotropin-releasing hormone receptor (GnRH-R), clone LC27-4 (human); assay: displacement of 125I-GnRH-A, membranes of COS-1 cells transfected with human GnRH-R
[12] = molecular target: human gonadotropin-releasing hormone receptor (GnRH-R), clone LC27-4 (human); assay: calculated from the IC50 of inhibition of GnRH-stimulated inositol phosphate production in COS-1 cells transfected with human GnRH-R
[13] = molecular target: human gonadotropin-releasing hormone receptor (GnRH-R), clone LC27-4 (human); assay: cell-based or functional assay

Compound: CC(C)C[C@H](NC(=O)CNC(=O)[C@H](Cc1ccc(O)cc1)NC(=O)[C@H](CO)NC(=O)[C@H](Cc1c[nH]c2ccccc12)NC(=O)[C@H](Cc1cnc[nH]1)NC(=O)[C@@H]1CCC(=O)N1)C(=O)N[C@@H](CCCNC(=N)N)C(=O)N1CCC[C@H]1C(=O)NCC(N)=O [GnRH, gonadotropin-releasing hormone]
response of RNA-injected oocytes to agonist ([1]; WZ25 RNA-injected oocytes): large depolarizing response
response to GnRH alone ([1]; WZ25 RNA-injected oocytes, n=4): 4756±1082 nA
Vr of the current elicited by GnRH ([1]; oocytes injected with WZ25 RNA transcript, n=7): -27±0.79 mV
response of RNA-injected oocytes to agonist [2]: large depolarizing currents

Compound: CCNC(=O)[C@@H]1CCCN1C(=O)[C@H](CCCNC(=N)N)NC(=O)[C@H](CC(C)C)N(C)C(=O)[C@@H](C)NC(=O)[C@H](Cc1ccc(O)cc1)NC(=O)[C@H](CO)NC(=O)[C@H](Cc1c[nH]c2ccccc12)NC(=O)[C@H](Cc1cnc[nH]1)NC(=O)[C@@H]1CCC(=O)N1 [GnRH-A, [D-Ala^6, NaMe-Leu^7, Pro^9-NHEt]GnRH]
Kd [3]: 2.9 nM
Kd [4]: 4.5 nM
Kd [5]: 0.97 nM

Compound: CC(C)C[C@H](NC(=O)[C@@H](Cc1ccccc1)NC(=O)[C@H](Cc1ccc(O)cc1)NC(=O)[C@H](CO)NC(=O)[C@@H]1CCCN1C(=O)[C@@H](Cc1ccccc1)NC(=O)[C@@H]1CCC(=O)N1)C(=O)N[C@@H](CCCNC(=N)N)C(=O)N1CCC[C@H]1C(=O)NCC(N)=O [[D-Phe^2.6, Pro^3]GnRH, [D-Phe^2.6,Pro^3]-GnRH] ([pGlu][dF]PSY[dF]LRPG-NH2)
response to GnRH in the presence of equimolar antagonist ([1]; WZ25 RNA-injected oocytes, n=5): 1880±551 nA
reduction in the response to GnRH ([1]; equimolar antagonist, in comparison with the response to GnRH alone): 60%

Compound: D-Ser(But)^6,Pro^9-N-ethylamide GnRH [buserelin]
response of RNA-injected oocytes to agonist ([1]; WZ25 RNA-injected oocytes): elicited a depolarizing current
response of RNA-injected oocytes to agonist [2]: large depolarizing currents

Compound: [Ac-D-NaI^1,D-α-4-ClPhe^2,D-Pal^3,D-Arg^6, D-Ala^10]GnRH [antagonist 13]
IC50 [6]: 6.7 nM

Compound: antagonist 13: [Ac-D-NaI^1,D-α-4-ClPhe^2,D-Pal^3,D-Arg^6, D-Ala^10]GnRH (from UniProt P01148 24-92) (peptide)
Kd [12]: 0.21 nM
IC50 of inhibition of GnRH-stimulated (10^-8 M) inositol phosphate production, transfected COS-1 cells [13]: 6.7 nM

Now from value to compound:

IC50 [6]: 105 nM
Kd [5]: 8.4 nM
Compound: CC(C)C[C@H](NC(=O)[C@@H](Cc1c[nH]c2ccccc12)NC(=O)[C@H](Cc1ccc(O)cc1)NC(=O)[C@H](CO)NC(=O)[C@@H](Cc1c[nH]c2ccccc12)NC(=O)[C@@H](Cc1ccccc1)NC(=O)[C@H]1CCC(=O)N1)C(=O)N[C@@H](CCCNC(=N)N)C(=O)N1CCC[C@H]1C(=O)NCC(N)=O [antagonist 5, [D-pGlu^1,D-Phe^2,D-Trp^3,6]GnRH] ([d(pGlu)][dF][dW]SY[dW]LRPG-NH2)

reduction in the response to GnRH in the presence of equimolar antagonist, WZ25 RNA-injected oocytes [7]: 60%
response to GnRH (clamp current) in the presence of equimolar antagonist, WZ25 RNA-injected oocytes [7]: 1880 nA
Compound: GnRH antagonist [D-Phe^2.6,Pro^3]-GnRH (from UniProt P01148 24-92) (peptide)

Bo (maximal binding) [8]: 1430 cpm
Kd [9]: 4.5 nM
Kd [10]: 2.9 nM
Kd [11]: 0.97 nM
Compound: [D-Ala^6, NaMe-Leu^7, Pro^9-NHEt]GnRH (GnRH-A) (from UniProt P01148 24-92) (peptide)

Kd [12]: 3.6 nM
IC50 of inhibition of GnRH-stimulated (10^-8 M) inositol phosphate production, transfected COS-1 cells [13]: 105 nM
Kd [11]: 8.4 nM
Compound: antagonist 5: [D-pGlu^1,D-Phe^2,D-Trp^3,6]GnRH (from UniProt P01148 24-92) (peptide)

response to GnRH alone (clamp current) in WZ25 RNA-injected oocytes [7]: 4760 nA
EC50 of inositol phosphate production, COS-1 cells transfected with human GnRH-R [13]: 3 nM
increase in phosphoinositol metabolism at maximal receptor stimulation, COS-1 cells transfected with human GnRH-R [13]: 8 fold
Compound: gonadotropin-releasing hormone (GnRH) (from UniProt P01148 24-92) (peptide)
